Data published in publication PMC3444267.

Columns and labels:
Test in all cases: semi-native SDS-PAGE with anti-HA immunoblot
[1] = target: BnGLP12.1:HA (Brassica napus)
[2] = target: BnGLP3.2:HA (Brassica napus)
[3] = target: BnGLP8:HA (Brassica napus)
[4] = target: BnGLP12.2:HA (Brassica napus)
[5] = target: BnGLP3.1:HA (Brassica napus)

## BnGLP12.1:HA (natural protein)
[1]
  stoichiometry N: 6

## BnGLP3.2:HA (natural protein)
[2]
  stoichiometry N: 6

## BnGLP8:HA (natural protein)
[3]
  stoichiometry N: 6

## BnGLP12.2:HA (natural protein)
[4]
  stoichiometry N: 6

## BnGLP3.1:HA (natural protein)
[5]
  stoichiometry N: 6
